Experimental data from the nanobody polyreactivity screen of Harvey et al. (2022).

Assay: yeast display, Sf9 membrane polyspecificity reagent, FACS + sequencing; frameworks hold sequencing errors
Method in brief: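 After 36–48 hours of galactose induction, yeast (Saccharomyces cerevisiae BJ5465) displaying a synthetic nanobody library were stained at 4 °C for 1 hour with 10% biotinylated, detergent-solubilized Sf9 membrane reagent. Streptavidin microbeads enriched the stained cells before FACS sorting into low and high (top ~1%) gates on anti-HA and streptavidin fluorescence. Each clone's polyreactivity label reflects its gate of origin.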

| Sequence | polyreactivity (PSR sort gate) |
| --- | --- |
| QVHLVESGGGLVQAGGSLRLSFAASGRIFARYALGWYRPAPGKERELVAAITSGGSTHYADSVKGRFTIARENAKNTVYLQMNSLKPEDSAVYYCAAVYRGQRYDYWGQGTQVTVSS | high polyreactivity |
| QVHLVESGGGLVQAGGSLRLSFAASGRIFDLYTMGWYRQAPGKERELVAAIRWSDGSTYYADSVKGRFTISRDNAKNTVYLQMNSLKPEDTAVYYCAADTRTSYYNDDYDYWGQGTQVTVSS | low polyreactivity |
| QVHLVESGGGLVQAGGSLRLSFAASGSTFYVNAMGWYRQAPGKERELVAAIRYSGGRTYYADSVKGRFTISRDNAKNNVYLQLNRLKPEDTAVYFCAATTYYGGLYTREFDYWGQGTQVTVSS | low polyreactivity |
| QVHLVESGGGLVQAGGSLRLSGAASGSTFLEYARGWYRQAPGKERELVADISSGGGTHYADSVKGRFTISRDNAKNTVYLQMNSLKPDDTAVYYCNRDISGSSGGELDYWGQGSQVTVSS | low polyreactivity |
| QVHLVESGGGLVQAGGSLRLSSAASGRTFRGNAMGWYRQPPGKEREFDAVISGSGGSTYYADSVKGRFTISRDNAKNTVYLQMNSLKPEDTAVYYCGDKPSRWQRYDYWGQGTQVTVSS | high polyreactivity |
| QVHLVESGGGLVQAGGSLRLSSAPSGSILLINAMGWYRQAPGKERELVAAIRTGGSTYYADSVKGRFTISRDNAKNTVYLQMNSLKPEDTAVYYCNVDYDVQPGGEFDYWGQGTQVTVSS | low polyreactivity |
| QVHLVESGGGLVQAGGSLRLSWAASGFIFKNYAMGWYRQAPGKERELVAVISRSGGSTYYADSVKGRFTISRDNAKNTVYLQMNSLKPEDTAVYYCNADRWKSGYWRYDYWGQGTQVTVSS | low polyreactivity |
| QVHLVESGGGLVQAGGSLRLSWAASGSILRQYAMGWYRQAPGKERELVATITGDGSTNYADSVKGRFTISRDNAKNTVYLQMNSLKPQDTAVYYCITDLTYPNPNVEVMVYGFKLDYWGQGTQVTVSS | low polyreactivity |
| QVHLVESGGGLVQAGGSLRLTCAASGFIFQWYAMGWYRQAPGKERELVAAINSSGSTNYADSVKGRFTISRDNAKNSGYLQRNILKPEDTAVYYCAAHWRYGRKFDYWGQGTQVTVSS | high polyreactivity |
| QVHLVESGGGLVQAGGSLSLSCAASGLNFRTYAMGWYRQAPGKERELVAAISSSGGSTYYADSVKGRFTISRDNAKNTVYLQMNSLKPEDTAVYYCNVGSRRRRYLDRYEYWGQGTQVTVSS | high polyreactivity |
| QVHLVESGGGLVQAGRSLRLSCAASGIIFQLYAMGWYRQPPGKERELVATISSVGSTNYADSVKGRFTISRDNAKNTVYLEMTSLNPEDTAVYYCNAARYGWGYFYGLNYWGQGTQVTVSS | low polyreactivity |
| QVHLVESGGGLVQAGRSLRLSCAASGLTFGTNPMGWYRQAPGKERELVAAITWRGGSTSYADSVKGRFTISRDNAKNTVYLQMNSLKPEDTAVYYCAVRLRYPGNTFYDWGQGTQVTVSS | high polyreactivity |
| QVHLVESGGGLVQAGRSLRLSCAASGRTSAYYAMGWYRQAPGKERELDAGITRGGRTNYADSVKGRFTISRDNAKNTVYLQMNSLKPEDTAVYYCAAKYGYYWNSRTSGYWGQGTQVTVSS | high polyreactivity |
| QVHLVESGGGLVQEGGSLRLSFAASGSSFIWYGMGWYRQAPGKARELVATITSSGSTNYADSVKGRFTISRDNAKNTVYLQMNSLKPEDTAVFYCAKRGPLRHYSWGQGTQVTVSS | low polyreactivity |
| QVHLVESGGGLVQSGGSLRLSCAASGTIFEANVKGWYRQAPGKERELVATISSDGTSTYYADSVKGRFTISRDNAKYTVYLQMNSRKPEDTAVYYCNADAGAGWYPDSKYAYDYWGQGTLVTVSS | low polyreactivity |
| QVHLVESGGGLVQSGGSLRLSCAATGNIFGRYAKGWYRQAPGKERELVAGISRGVSTSYADSVKGPFTISRDNAKNTVYLQMYSLKPDDTAVYYCTKRPWYLSDYWGQGTEVTVSS | low polyreactivity |
| QVHLVESGGGVLQAGVSLRLSCAASGFTFYGNAMGWYRQAAGKERELVAANSGRGGSTYYADSVKGRFTISRDNEKYTVYLHMNSLKPEDTAVYYCDIYVSWPLYYYWGQGTQVTVSS | low polyreactivity |
| QVHLVESGGGVVQAGGSLRLSCAASGFTFVPYAMGWYRQAPGKETETNADSVKGRFTSSRDNAKNTVYLQMNSLKPEDTAVYYCAAGGYGPYDYWGQGTQVTVSS | low polyreactivity |
| QVHLVESGGGVVQAGGSRRLSCAASGSIIHDNAMGWYRQAPGKERELVADITWSGGSTYYADSVKGRFTISRDNAKITVYLQMNSLKPEETAVYDCAAGSGHWYYYDFDYWGQGTLVTVSS | high polyreactivity |
| QVHLVESGGRLVQAGGSLRLSCAASGFIFQWYAMGWYRQAPGKERELVAAINSSGSTNYADSVKGRFTISRDNAKNTVYLQMNSLKPEDTAVYYCAAHWRYGRKFDYWGQGTQVTVSS | high polyreactivity |
| QVHLVESGGRLVQAGGSLRLSCAASGSTFTINVMGWYRQAPGKERELVADISWSGGSTYYADSVKGRFTISRDNAKNTVYSQMNSLYPVYTAVSYCATDGAYWTYYSWYDYWGQGTQVTVSS | low polyreactivity |
| QVHLVESGGVLVQAGCSLRLSCSASGSTFDFNAMGWYRQAPGKERELVAAITSGDSTNYADSVQGRFTISRDNAKNTVYLQMNSLKPEDTAVYYCAARYYWKYITSAARRAGSDYWGQGTQVTVSS | low polyreactivity |

| Sequence | polyreactivity (PSR sort gate) |
| --- | --- |
| QVHLVESRGGLVQAGGSLRLSCAASGFIFRWYAMGCYRQAPGKERELVAAISSSSGSTYYADSVKGRFTISRDNAKNTVYLQMNSLKPEDTAVYYCAAESNRRFEGEYWGQGTQVTVSS | high polyreactivity |
| QVHLVESVGGLVQAGGSLRLICAASGRIFRRYAMGWYIQAPGKEREFVAAISYGGGSTYYADSVKGRFTISRDNAKNTVYLQMNSLKPEDSAVYYCNADVPKSLLLYYPWGYGYWGQGTQVTVSS | low polyreactivity |
| QVHLVESVGGLVQAGGSLRLSCAASGRTSGANAMGWYRQAPGKERELVAAIRYSVGSTYYADSVKGRFTISRDNAKNTVYLQMISLKPEDTAVYYCAARGYPKRGGYWGQGTQVTVSS | high polyreactivity |
| QVHLVETGGGLVQAGGSLRLSCAASGSIFFVYAMGCYRPAPGKERELVAAISNDGSTNYADSVKGRFTISRDNAKNTVYLQMNCLIPEDTAVYYCAKDTRTKYDYWGQGTQVTVSS | low polyreactivity |
| QVHLVQSGGGLVQAGGSLRLSCAASGRIFKFYAMGWYRQAPGKEMELVATISRGGSTYYADSVKGRFTISRDNAKNTVYLQMNSLKPEDTAVYYCAKQRERYYWFGAWSYDYWGQGTQVTVSS | low polyreactivity |
| QVHLVQTGGGLVQAGGSLRLSCAASGRIFRTNGMGWYRQAPGKERELVAAISSGDSTYYADSVKVRFTISRDNAKNTVYLQMNSLKPEDTAVYYCAADFGRKGGPGYDYWGQGTQVTVSS | low polyreactivity |
| QVHLYESGGGLVQLGGSLRLSCAASGTIFDYYTMGWYSQAPGKEREFVAAIAYGTNTYYADSVKGRFSISRDNAKHTVFLLLYSLKPEDTAVYYCATVGPRGLYYYWGQGTQVTVSS | high polyreactivity |
| QVHVVESWGGLVQAGGSLSLSCAASGLIIWMYTMGWYRQAPWKERELVAAIDWSGGSTYYADSVKGRFTISRDNAKNTVYLQMNSLKPEDTAVYYCAADPEPSYRFDYWGQGTQVTVSS | low polyreactivity |
| QVKHVESGGGLVQAGGSLRLTCAASGSIFYRNAMGWYRQAPGKERELVAGISRRGGSTYYADSVKGRFTMSRDNAKNTVYLQMNSLKPEDTAGYYCAADFAWVRLTYGYCGQGTQVTVSS | low polyreactivity |
| QVKIVESGGGLVQAGGSLRLSCAASGSTYYYYSMGWYRQAPGKERELVAAITGSGTSTYYADSVKGRFTISRDNAKNTVYLQMNSLKPEYTAVYYCAAEYPWYYYIDVSYTDYGYWGQGTQVTVSS | high polyreactivity |
| QVKLEDSGGGLVQAGGSLRLSCAASGSTFEKYVMGWYRQAPGKERELVAAITYSGDSTYYADSVKGRFTISRDNAKNTVYLQMNSLKPEDTAVYYCAAKTTRTSIPRKGRGYYYWGQGTQVTVSS | high polyreactivity |
| QVKLEESGGGLVQAGGSLRLSSAASGYTIGIYAMGWYRQAPGKERELVAAISADGGITYYADSVKGRFTISRDNAKNTVYLQMNSLKPEDTAFYYCNTLVDQDAYAGFRLDYWGQGSQVTVSS | low polyreactivity |
| QVKLGESGGGLVQAGGSLLLSCAASGRTFWYYTMGWYRQAPGKERELVASITAGSGTTYYADSVKGRFTISRHNAKNTVYFQMYSLKPEDSAGYYCSSKNTPSFFYYDRYDYWGHGTQVTVSS | low polyreactivity |
| QVKLQGSGGGLAQAGDSLRLSCAASGTIFSEYNNGLVSPGAGQRTRTCCRYWCWGNTYYADSAKGRFTTSRDNAKNSVYLQKNSLKPEDTAVYYCAFNLPYPSRHIYRGQGTQVTVSS | high polyreactivity |
| QVKLVESAGGLVQAGGSLRLSCAASGSIFPYNVMGWYRQAPGKERELVAAITRRGGSTYYADSVKGRFTISRDNAKNTVYLQMNSLKPEDSAVYYCAAVPYPRGIGYDYWGQGTQVTVSS | high polyreactivity |
| QVKLVESAGGLVQAGGSLRLSCPASGIIFGLYTMGWYRQAPGKERELVAAISDSGGRTYYADSVKGRFTISRDNVKNTVYFQMNSRKPADTAVYYCATRWPNYGGYYYWGLGTQVTVSS | high polyreactivity |
| QVKLVESGAGLVQAGGSLRLSCAASGITFYWYAIGWYRPAPGKEMELVADITSSGSSTYYADSVKGRFTISRDNAKNTVYLQMNSLKPEDTAVYYCNARPGRRSLRSRTYDYWGQGTQVTVSS | high polyreactivity |
| QVKLVESGGGKVQAGGSLRLSCAASGYTFDPNAIGWYRQEPGKERELVAAISRIGGSTYYADSVKGRFTISRDNAKTTLYVQMNSLKPEDTAVYYCAVDWYLTGHWADDYWGQGTQVTVSS | low polyreactivity |
| QVKLVESGGGLVHAGGSLRLSCSASGRIIGFNAMGVYRQAPGKERELVASIRTTGGSTRYADSVKGRFTISRDNAKNTVSLQMNSLKPEDTAVYYCAARWGKTRWQYNYWGHGTQVTVSS | high polyreactivity |
| QVKLVESGGGLVKAGGSLRLSCAASGSISDWYAMGWYIQAPGKERELVAAISNSDGSTYYADSEKGRFTISRDNAKNTVYLQMNSLQPEYTAVYYCNASDAHEDRKSEYWGQGTQVTVSS | low polyreactivity |
| QVKLVESGGGLVPAGGSLRLSCAASGNIFVNYAMRWYRQAPGKERELVASINYNGGITYYADSVKGRFTISRDNAKNTVYLQMNSLKPEDTAVYDCDKDGGGLLRWYTDEYDYWGQGTQVTVSS | low polyreactivity |
